Article doi:10.1101/2021.01.26.428356, “Sequence signatures of two IGHV3-53/3-66 public clonotypes to SARS-CoV-2 receptor binding domain” (bioRxiv, 2021)

Molecular target: T1, Fc-tagged receptor-binding domain (RBD) of the SARS-CoV-2 spike (S) protein (SARS-CoV-2, Wuhan-Hu-1 (GenBank …, UniProt P0DTC2))
T1 construct: also called SARS-CoV-2 RBD; SARS-CoV-2 S RBD-Fc; not shown: Fc, C-terminal, kept
Experiment: BLI; Octet Red96e; Fc-tagged RBD loaded onto the biosensor (streptavidin biosensors as printed), Fab in solution; 1x PBS pH 7.4, 0.01% w/v BSA, 0.002% v/v Tween 20; 60 s association, 60 s dissociation; 1:1 binding model
Details: both partners purified

B1: COVA2-20 Fab, F58 variant (heavy chain Y58F) (Fab, V domains shown)
VH: EVQLVESGGGLIQPGGSLRLSCAASGFTVSSNYMSWVRQAPGKGLEWVSVIYSGGSTFYADSVKGRFTISRDNSKNTLYLQMNSLRAEDTAVYYCASPLLLTPPDYYYYMDVWGKGTMVTVSS
VL: DVVMTQSPSSLSVSVGDRVTITCRASQGIRNDLGWYQQKPGKAPKRLIYAASSLQSGVPSRFSGSGSGTEFTLTISSLQPEDFATYYCLQHNSYLWTFGQGTKLEIK
notes: also called COVA2-20 F58
B1: binds.

B2: CC12.3 Fab, Y58 variant (heavy chain F58Y) (Fab, V domains shown)
VH: QVQLVESGGGLIQPGGSLRLSCAASGFTVSSNYMSWVRQAPGKGLEWVSVIYSGGSTYYADSVKGRFTISRDNSKSTLYLQMNSLRVEDTAVYYCARDFGDFYFDYWGQGTLVTVSS
VL: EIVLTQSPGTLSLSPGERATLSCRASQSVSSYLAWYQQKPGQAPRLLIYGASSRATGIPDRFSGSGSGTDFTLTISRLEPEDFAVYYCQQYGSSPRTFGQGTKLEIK
notes: also called CC12.3 Y58
B2: binds.
